In US20140341881 one finds Kcat/Km data, which are given here for five substances.

The test system of data set [1] is CFP-YQSLN-YFP-6xHis substrate (peptide F10).
The test system of data set [2] is CFP-QRLRD-YFP-6xHis substrate (peptide F11).
The test system of data set [3] is CFP-LSGGR-YFP-6xHis substrate (peptide E2).
For data set [4], the system named is CFP-VGSLR-YFP-6xHis substrate (peptide G1).
Data set [5] relates to CFP-LSRDN-YFP-6xHis substrate (peptide E7).
The test system of data set [6] is CFP-NQRSS-YFP-6xHis substrate (peptide E5).
Data set [7] has as its system T1, CFP-AYGYK-YFP-6xHis substrate (peptide E1).
T1 sequence: GALGGAYGYKGST

In data set [8] the test system is CFP-RQTND-YFP-6xHis substrate (peptide C11).
Data set [9] relates to T2, CFP-PDRHM-YFP-6xHis substrate (peptide F3).
T2 sequence: GALGGPDRHMGST

The test system of data set [10] is CFP-LQRAI-YFP-6xHis substrate (peptide E8).
In data set [11] the test system is CFP-NNKLR-YFP-6xHis substrate (peptide E9).
In data set [12] the test system is CFP-RGKTN-YFP-6xHis substrate (peptide D9).

Chain of human plasma kallikrein (PK) (chain, as listed by the source): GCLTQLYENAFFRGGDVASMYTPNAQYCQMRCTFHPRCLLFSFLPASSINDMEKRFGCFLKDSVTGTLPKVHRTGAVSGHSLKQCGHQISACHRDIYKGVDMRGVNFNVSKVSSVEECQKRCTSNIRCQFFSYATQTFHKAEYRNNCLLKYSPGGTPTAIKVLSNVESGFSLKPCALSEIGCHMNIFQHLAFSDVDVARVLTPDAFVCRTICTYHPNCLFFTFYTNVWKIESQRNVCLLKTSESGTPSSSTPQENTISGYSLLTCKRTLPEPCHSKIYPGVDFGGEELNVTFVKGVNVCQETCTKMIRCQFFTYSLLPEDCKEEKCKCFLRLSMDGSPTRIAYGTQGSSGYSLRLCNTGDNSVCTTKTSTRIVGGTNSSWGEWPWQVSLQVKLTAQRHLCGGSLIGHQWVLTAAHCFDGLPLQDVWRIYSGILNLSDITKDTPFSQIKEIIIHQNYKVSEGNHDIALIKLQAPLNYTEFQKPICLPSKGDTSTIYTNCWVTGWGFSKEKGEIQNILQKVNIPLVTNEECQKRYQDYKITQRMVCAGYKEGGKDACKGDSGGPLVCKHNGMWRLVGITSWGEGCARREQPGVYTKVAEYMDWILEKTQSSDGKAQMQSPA

Consider prostate specific antigen (PSA, hK3), for which the Kcat/Km entry in data set [1] is on record as “L.C”.

In the case of trypsin, the Kcat/Km amounted to 1.42e+06 M⁻¹ s⁻¹ in data set [2]; 4.68e+06 M⁻¹ s⁻¹ in data set [3]; 270000 M⁻¹ s⁻¹ in data set [4]; 246000 M⁻¹ s⁻¹ in data set [5]; 2.07e+06 M⁻¹ s⁻¹ in data set [6]; 129000 M⁻¹ s⁻¹ in [7]. Also, the Kcat/Km in [8] was found to be 260000 M⁻¹ s⁻¹; in data set [9], 319000 M⁻¹ s⁻¹; in data set [10], 2.27e+06 M⁻¹ s⁻¹; in data set [11], 384000 M⁻¹ s⁻¹; in [12] it was 2.11e+06 M⁻¹ s⁻¹.

For the substance human kallikrein 2 (hK2), the Kcat/Km in data set [2] was 32000 M⁻¹ s⁻¹; in data set [3], 14000 M⁻¹ s⁻¹; in [4] it was 21000 M⁻¹ s⁻¹; in data set [5], 16000 M⁻¹ s⁻¹; in data set [6], 14000 M⁻¹ s⁻¹; in [8], 23000 M⁻¹ s⁻¹. In addition, the Kcat/Km was found to be 25000 M⁻¹ s⁻¹ in data set [10], 12000 M⁻¹ s⁻¹ in data set [11] and 21000 M⁻¹ s⁻¹ in [12].

With human kallikrein hK1, the Kcat/Km entry in [2] is listed as “L.C”.

On to human plasma kallikrein (PK), for which the Kcat/Km in [6] and in [10] was 5000 M⁻¹ s⁻¹ throughout.
